Data set [1] in a line: Hemodynamic studies and total toxicity score after standard heparin reversal, canine study. The settings on record: dogs.
Procedure: As used hereinafter, the peptides will be identified by their total cationic charge value, e.g., [+8], [+16], etc.
Hemodynamic studies were conducted by measuring mean arterial pressure (MAP), heart rate (HR), and maximum percent changes in cardiac output (CO) and systemic oxygen consumption (VO2).
Total toxicity scores (TTS) were developed that reflected maximum declines in each of four parameters (MAP, CO, VO2 and HR) over the first 5 minutes after reversal, the latter being the time of expected greatest adverse hemodynamic effect. The maximum changes occurring in an individual dog over the first 5 minutes were divided by the standard deviation derived from the entire group of tested animals and the four scores were added, resulting in a TTS for each individual dog. The TTS values for each dog were then summed to obtain an average TTS and SD for each peptide studied.
Data set [2] can be described thus: Maximum hemodynamic changes and total toxicity score after standard heparin reversal, cell adhesion ligand analogs, canine study. The note with it: dogs, agent over 10 seconds.
Procedure: In these studies, the anticoagulation-reversing agents were administered over a 10 second interval to maximize the hemodynamic effects.
Hemodynamic studies were conducted by measuring mean blood pressure (Mean BP) in mm Mercury, maximum percent changes in cardiac output (CO) and systemic oxygen consumption (VO2), and heart rate (HR) in beats per minute. Measurements and calculations were made at baseline, before administration of standard, unfractionated heparin, 3 minutes before reversal, every 30 seconds for 5 minutes after reversal.
Total toxicity scores (TTS) were developed in accordance with the method described hereinabove that reflected maximum declines in each of four parameters (MAP, CO, VO2 and HR) over the first 5 minutes after reversal.
Data set [3] can be described thus: Hemodynamic studies and total toxicity score after LMWH reversal, canine study. The note with it: dogs, Logiparin.
Procedure: Hemodynamic studies were conducted by measuring mean arterial pressure (MAP) in mm Mercury, maximum percent changes in cardiac output (CO) and systemic oxygen consumption (VO2), and heart rate (HR) in beats per minute. Measurements and calculations were made at baseline, before LMWH administration, 3 minutes before reversal, every 30 seconds for 5 minutes after reversal, and at 10, 20, and 30 minutes after reversal.
Total toxicity scores (TTS) were developed that reflected maximum declines in each of four parameters (MAP, CO, VO2 and HR) over the first 5 minutes after reversal. The maximum changes occurring in an individual dog over the first 5 minutes were divided by the standard deviation derived from the entire group of tested animals and the four scores were added, resulting in a TTS for each individual dog. The TTS values for each dog were then summed to obtain an average TTS and SD for each peptide studied. The more negative the value of TTS, the more toxic the compound.
A short description of data set [4]: Platelet count, leukocyte count and bleeding time after LMWH reversal at different rates, canine study. Type of data set: in vivo, dogs.
Procedure: The anticoagulation-reversing agents were administered rapidly over 10 seconds to maximize hemodynamic effects or more slowly over a 3 minute interval. Changes in LMWH anticoagulation occurring from metabolism alone were determined in a separate group of dogs not given any reversal agent.
The nature of data set [5]: Platelet and white cell counts after standard heparin reversal, canine study. It is filed as in vivo. The note with it: dogs, 3 minutes post-reversal, resolved by about 30 minutes. The protocol: Anticoagulation reversal was assessed by a number of standard coagulation tests performed upon samples of venous blood: activated clotting time (ACT), prothrombin time (PT), activated partial thromboplastin time (aPTT), thrombin clotting time (TCT), heparin concentration by assay for FXa inhibitory activity (FXa), white cell count (WBC), and platelet counts (PLT). Measurements were made 3 minutes prior to heparin reversal (baseline) and 3 minutes and 30 minutes post-administration of the heparin reversal agent. The "Heparin" row sets forth the observed reversal as a consequence of expected heparin metabolism or degradation alone.

Where [6] appears, read: dogs, Logiparin, administered over 3 min.

The results in this text go back to patent publication US5919761A, “Peptides for heparin and low molecular weight heparin anticoagulation reversal” (The Board of Regents of the University of Michigan, priority 1995, dated 1999).

For the substance “PR4 S3 RPVR5 PRVSR6 G2 R4 [Protamine [+21], reference compound]”, in data set [1], the ΔHR is listed as -29. Moreover, in data set [1] (average maximum decline in first five minutes after peptide administration), the ΔMAP is reported as -34. Further, in data set [1] (first 5 minutes after reversal, more negative = more toxic), the “average total toxicity score (TTS±SD)” value is -7.0±5.2. In addition, in data set [1] (maximum percent change), the ΔCO is recorded as -38% and the ΔVO2 was -35%. For the same substance, the “Maximum hemodynamic change, Mean BP” value in data set [2] (standard heparin 150 IU/kg IV, 5 minutes) was -31 mm Mercury. In data set [2] (standard heparin, 5 minutes), the “Maximum hemodynamic change, CO” value is recorded as -36%; the “Maximum hemodynamic change, HR” value is reported as -27 beats/min; the “Maximum hemodynamic change, VO2” value is recorded as -32%. Further, the “Total Toxicity Score” value in data set [2] (standard unfractionated heparin) is on record as -8.02 ± 5.20. For the same substance, in data set [3], the “maximum mean increase in pulmonary artery diastolic (PAD) pressure” value was “+10 mm Mercury”, the “maximum mean increase in pulmonary artery systolic (PAS) pressure” value was “+10 mm Mercury”, the ΔHR was -18 beats per minute and the ΔMAP is given as -32 mm Mercury. In addition, the “Total Toxicity Score” value in data set [3] (first 5 minutes after reversal, 1:1 peptide to LMWH) is -7.6 ± 4.8. In data set [3] (maximum percent change), the ΔCO is on record as -32% and the ΔVO2 is -26%. In addition, in data set [4] (dogs, Logiparin, administered over 10 sec), the “Maximal decline in leukocyte count” value is -3%. For the same substance, in data set [4] (setting [6]), the “Maximal decline in leukocyte count” value was -26% and the Maximal thrombocytopenia is listed as -32%. The bleeding time in data set [4] (selected animals, given over a 3 minute interval) is not above 8 min. In data set [5], the platelet counts entry is listed as “thrombocytopenia”.
